According to US20080311034A1 (published 2008):

Assays:
[1] = target: T1, recombinant human His-tagged FcγRIIa (R&D Systems #1330-CD-050) (human, UniProt P12318 36-218, limits assumed); assay: AlphaScreen
T1 construct: Bought; also called CD32a; recombinant, soluble, human FcγRIIa
T1 sequence (looked up): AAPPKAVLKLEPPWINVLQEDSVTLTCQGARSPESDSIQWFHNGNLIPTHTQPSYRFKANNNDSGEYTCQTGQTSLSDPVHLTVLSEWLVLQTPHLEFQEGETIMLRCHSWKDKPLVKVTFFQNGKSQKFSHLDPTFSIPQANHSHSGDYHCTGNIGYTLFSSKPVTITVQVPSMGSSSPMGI
Description: FcγRIIa (CD32a) AlphaScreen—Nickel acceptor beads (Perkin Elmer #6760619C) were diluted 1:50 in assay buffer (PBS, pH 7.4, 4 mg/ml BSA, 0.01% Tween-20), and 27.5 μl were added to each well of a Nunc V-bottom polypropylene plate (VWR # 62409-108) (Powers G., Notebook 9006, pp. 169-175, 182-185). A 2.0 μg/ml solution of recombinant human His-tagged FcγRIIa (R&D Systems #1330-CD-050) was prepared in assay buffer and 27.5 μl added to each well of a separate Nunc V bottom polypropylene plate. Titrations of test Abs were prepared in the Nunc V bottom polypropylene plate starting at 30 μg/ml. A 2 μg/ml solution of biotinylated goat F(ab′)₂ anti-human IgG F(ab′)₂ (Jackson Immunoresearch #109-066-097) was prepared in assay buffer and 27.5 μl added to each well of another Nunc V bottom polypropylene plate. A 1:50 dilution of streptavidin donor beads (PerkinElmer # 6760002) was prepared in assay buffer and 27.5 μl added to each well of another Nunc V bottom polypropylene plate. A volume of 5 μl of each reagent was added to the corresponding quadrants of a low-volume, non-binding white 384-well plate (Corning # 3673) in the following order: acceptor beads, FcγRIIa, test Ab, biotinylated anti-human IgG F(ab′)₂, and streptavidin donor beads. The plates were incubated for 30 minutes with shaking and the O.D.s determined using an Envision plate reader.
FcγRIIb (CD32b) AlphaScreen—The assay was performed as described above for FcγRIIa except that FcγRIIa was replaced with FcγRIIb (R&D Systems #1875-CD-050).

[2] = target: FcγRIIIa on NK cells of human PBMC (human, UniProt P08637 17-254); assay: cell-based or functional assay
FcγRIIIa on NK cells of human PBMC, sequence (P08637 17-254): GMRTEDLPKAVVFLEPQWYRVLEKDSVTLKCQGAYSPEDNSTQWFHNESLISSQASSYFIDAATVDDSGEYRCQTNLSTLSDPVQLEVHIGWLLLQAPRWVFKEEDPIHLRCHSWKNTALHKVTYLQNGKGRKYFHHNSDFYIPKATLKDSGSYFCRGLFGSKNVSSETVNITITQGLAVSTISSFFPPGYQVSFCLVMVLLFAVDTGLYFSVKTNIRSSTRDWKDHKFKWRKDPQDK

B1: CNTO 860 A330I/I332E (antibody, human IgG1, kappa)
heavy: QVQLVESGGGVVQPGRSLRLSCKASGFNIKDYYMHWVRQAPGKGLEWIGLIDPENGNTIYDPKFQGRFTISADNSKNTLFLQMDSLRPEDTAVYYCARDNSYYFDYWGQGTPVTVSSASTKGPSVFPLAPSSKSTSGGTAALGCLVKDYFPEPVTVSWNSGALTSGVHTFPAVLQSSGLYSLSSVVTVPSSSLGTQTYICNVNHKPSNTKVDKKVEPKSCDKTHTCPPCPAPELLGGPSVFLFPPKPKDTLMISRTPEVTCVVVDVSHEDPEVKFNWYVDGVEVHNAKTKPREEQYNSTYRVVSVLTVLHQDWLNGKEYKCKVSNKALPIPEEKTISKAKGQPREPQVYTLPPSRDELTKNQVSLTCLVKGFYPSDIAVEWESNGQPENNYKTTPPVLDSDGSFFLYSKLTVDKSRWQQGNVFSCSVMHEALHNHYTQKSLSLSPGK
light: DIQMTQSPSSLSASVGDRVTITCKASQDIRKYLNWYQQKPGKAPKLLIYYATSLADGVPSRFSGSGSGTDYTFTISSLQPEDIATYYCLQHGESPYTFGQGTKLEITRTVAAPSVFIFPPSDEQLKSGTASVVCLLNNFYPREAKVQWKVDNALQSGNSQESVTEQDSKDSTYSLSSTLTLSKADYEKHKVYACEVTHQGLSSPVTKSFNRGEC
modifications: N-linked glycan at Asn297 of the heavy chain (fucose content depends on host cell, CHO or YB2/0); not carried by the letters
notes: also called A330I/I332E double mutant; A330I/I332E variant; copies: 2 + 2
- fold higher concentration than WT to give an OD signal of 200,000 [1]: ~20 fold
- fold activity in the ADCC assays [2]: ~10 fold
